What was measured:
[1] = target: HTkC (TK1040), face-to-face (FtF) histone from Thermococcus kodakarensis (Thermococcus kodakarensis); test: SEC-MALS
[2] = target: HTkC R45A (Thermococcus kodakarensis); test: SEC-MALS

stoichiometry N [1]	stoichiometry N [2]	Substance
4		HTkC (TK1040), face-to-face (FtF) histone from Thermococcus kodakarensis (natural protein)
	2	HTkC R45A (natural protein)

From article doi:10.64898/2025.12.06.692711
